Reference: article PMC7368258 (Proceedings of the National Academy of Sciences of the …, 2020)
Residue numbers refer to the chain shown, from its start. Names may count otherwise.

What was measured:
FRET or BRET = biological target: the molecule itself; experiment: FRET or BRET
SEC = biological target: the molecule itself; experiment: SEC

B1: mCER-Prx2(C51S), expressed in HEK293 cells (natural protein)
chain: MASGNARIGKPAPDFKATAVVDGAFKEVKLSDYKGKYVVLFFYPLDFTFVSPTEIIAFSNRAEDFRKLGCEVLGVSVDSQFTHLAWINTPRKEGGLGPLNIPLLADVTRRLSEDYGVLKTDEGIAYRGLFIIDGKGVLRQITVNDLPVGRSVDEALRLVQAFQYTDEHGEVCPAGWKPGSDTIKPNVDDSKEYFSKHN
stoichiometry N (FRET or BRET): 10

B2: recombinant mCER-Prx2(C51S) (natural protein)
chain: B1 chain
stoichiometry N (SEC): 10

B3: recombinant mCER-Prx2(C172S) (natural protein)
chain: B1 chain with S51C, C172S
stoichiometry N (SEC): 2

B4: recombinant mCER-Prx2 (natural protein)
chain: B1 chain with S51C
stoichiometry N (SEC): 10

B5: mCER-Prx2(T82E/A85E), expressed in HEK293 cells (natural protein)
chain: B1 chain with S51C, T82E, A85E
stoichiometry N (FRET or BRET): 2
